From the supplement of paper PMC9233669
Variants at the floor of the assay were thinned out.

Legend:
biotinyl-Met-oxazolone = test: self-aminoacylation, catalytic enhancement (BMO) (fold over background); higher = more active; k-Seq, kA / k0A0; sequences stand for … in GGGAAUGGAUCCACAUCUACGAAUUC…UUCACUGCAGACUUGACGAAGCUG
Procedure, shortened: (§1)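 Mutagenized RNA pools with a 21-nt variable region (0.43 μM) were reacted with each biotinyl-aminoacyl-oxazolone at 2–1250 μM for 90 minutes at room temperature, in 50 μL HEPES/NaCl/KCl/MgCl2/CaCl2 buffer containing 5% acetonitrile at pH 6.9–7.0. RNA captured on streptavidin was quantified by triplicate qPCR and by Illumina sequencing. The fraction reacted for each sequence was fit to a pseudo-first-order model with bootstrapping, and catalytic enhancement is the median kA divided by the uncatalyzed rate, taken as the low-activity peak of a bimodal Gaussian fit.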

biotinyl-Trp-oxazolone = test: self-aminoacylation, catalytic enhancement (BWO) (fold over background); higher = more active; k-Seq, kA / k0A0; sequences stand for … in GGGAAUGGAUCCACAUCUACGAAUUC…UUCACUGCAGACUUGACGAAGCUG
Procedure, shortened: as §1

biotinyl-Phe-oxazolone = test: self-aminoacylation, catalytic enhancement (BFO) (fold over background); higher = more active; k-Seq, kA / k0A0; sequences stand for … in GGGAAUGGAUCCACAUCUACGAAUUC…UUCACUGCAGACUUGACGAAGCUG
Procedure, shortened: as §1

biotinyl-Val-oxazolone = test: self-aminoacylation, catalytic enhancement (BVO) (fold over background); higher = more active; k-Seq, kA / k0A0; sequences stand for … in GGGAAUGGAUCCACAUCUACGAAUUC…UUCACUGCAGACUUGACGAAGCUG
Procedure, shortened: as §1

biotinyl-Leu-oxazolone = test: self-aminoacylation, catalytic enhancement (BLO) (fold over background); higher = more active; k-Seq, kA / k0A0; sequences stand for … in GGGAAUGGAUCCACAUCUACGAAUUC…UUCACUGCAGACUUGACGAAGCUG
Procedure, shortened: as §1

biotinyl-Ile-oxazolone = test: self-aminoacylation, catalytic enhancement (BIO) (fold over background); higher = more active; k-Seq, kA / k0A0; sequences stand for … in GGGAAUGGAUCCACAUCUACGAAUUC…UUCACUGCAGACUUGACGAAGCUG
Procedure, shortened: as §1

Sequence	self-aminoacylation (biotinyl-Met-oxazolone)	self-aminoacylation (biotinyl-Trp-oxazolone)	self-aminoacylation (biotinyl-Phe-oxazolone)	self-aminoacylation (biotinyl-Val-oxazolone)	self-aminoacylation (biotinyl-Leu-oxazolone)	self-aminoacylation (biotinyl-Ile-oxazolone)
AUUCCCCUGGUCCUCGAGUGA [Fam2.1 aminoacylation ribozyme variant]	6.08	6.87	42.5	3.77	7.24	3.65
AUUCCCCUGUUCAUCGAGUGA [Fam2.1 aminoacylation ribozyme variant]	5.28	7.62	12.4	4.28	5.39	4.07
AUUCCCGUAGGUCAUCGGGUG [Fam2.2 aminoacylation ribozyme variant]	25.3	25.3	259	20.2	32.4	17
AUUCCGCUAGGUCAUCGGGUG [Fam2.2 aminoacylation ribozyme variant]	14	13.6	128	8.93	17.7	8.43
AUUCGCCAAGGUCAUCGGGUG [Fam2.2 aminoacylation ribozyme variant]	10.7	11	91.8	6.69	14.7	7.65
AUUCGCCGAGGUCAUCGGGUG [Fam2.2 aminoacylation ribozyme variant]	12.4	9.29	80.2	7.83	13.7	6.76
AUUCGCCUAGGUCAUCGGGGG [Fam2.2 aminoacylation ribozyme variant]	5.82	3.54	30	3.72	7.51	4.36
AUUCGCCUAGGUCAUCGGGUC [Fam2.2 aminoacylation ribozyme variant]	1.62	1.76	6.94	1.91	1.88	1.58
AUUCGCCUAGGUCAUUGGGUG [Fam2.2 aminoacylation ribozyme variant]	4.27	4.29	23.2	3.23	5.43	3.14
AUUCGCCUAGGUGAUCGGGUG [Fam2.2 aminoacylation ribozyme variant]	2.35	3.31	20.6	2.48	3.46	2.56
AUUCGCCUAGGUUAUCGGGUG [Fam2.2 aminoacylation ribozyme variant]	5.77	5.88	42.5	4.33	6.76	3.77
AUUCGCCUAUGUCAUCGGGUG [Fam2.2 aminoacylation ribozyme variant]	5.1	4.65	30.7	3.16	6.54	3.35
AUUCGCCUCGGUCAUCGGGUG [Fam2.2 aminoacylation ribozyme variant]	8.96	8.94	56.3	6.21	10.9	5.14
AUUCUCAUAGGUCAUCGGGUG [Fam2.2 aminoacylation ribozyme variant]	10.8	10.6	82.5	6.14	13.5	5.71
AUUCUCCGAGGUCAUCGGGUG [Fam2.2 aminoacylation ribozyme variant]	16.7	14.7	141	10.6	22	9.69
AUUCUCCUAAGUCAUCGGGUG [Fam2.2 aminoacylation ribozyme variant]	16	16	154	9.67	21.3	10.3
AUUCUCCUAGGACAUCGGGUG [Fam2.2 aminoacylation ribozyme variant]	4.55	3.73	27.8	3.62	5.06	2.81
AUUCUCCUAGGUCAGCGGGUG [Fam2.2 aminoacylation ribozyme variant]	6.21	8.04	43.1	3.99	8.81	4.22
AUUCUCCUAGGUCAUCGGGAG [Fam2.2 aminoacylation ribozyme variant]	1.81	1.71	5.17	1.33	1.77	1.49
AUUCUCCUAGGUCAUGGGGUG [Fam2.2 aminoacylation ribozyme variant]	9.56	8.92	78.8	5.64	12.5	5.81
AUUCUCCUAGGUCAUUGGGUG [Fam2.2 aminoacylation ribozyme variant]	5.76	6.02	44	3.87	7.5	3.96
AUUCUCCUAGUUCAUCGGGUG [Fam2.2 aminoacylation ribozyme variant]	4.59	5.28	32.7	3.46	5.88	3.84
AUUCUCGUAGGUCAUCGGGUG [Fam2.2 aminoacylation ribozyme variant]	11.3	9.21	77.6	7.51	12.2	6.47
AUUGACCAAGGUCAUCGGGUG [Fam2.2 aminoacylation ribozyme variant]	6.04	6.06	45.5	3.9	7.01	4.36
AUUGACCUAGGCCAUCGGGUG [Fam2.2 aminoacylation ribozyme variant]	4.78	6.22	39.3	4.27	5.7	3.65
AUUGACCUAGGUCAUCGAGUG [Fam2.2 aminoacylation ribozyme variant]	9.94	6.09	27.9	5	13.7	6.03

Sequence	self-aminoacylation (biotinyl-Met-oxazolone)	self-aminoacylation (biotinyl-Trp-oxazolone)	self-aminoacylation (biotinyl-Phe-oxazolone)	self-aminoacylation (biotinyl-Val-oxazolone)	self-aminoacylation (biotinyl-Leu-oxazolone)	self-aminoacylation (biotinyl-Ile-oxazolone)
AUUGACCUAGGUCAUCGCGUG [Fam2.2 aminoacylation ribozyme variant]	4.19	5.47	25	3.69	5.69	3.24
AUUGACCUAGGUCAUCGGCUG [Fam2.2 aminoacylation ribozyme variant]	1.58	1.95	1.19	1.7	1.76	1.6
AUUGACCUAGGUCAUCGGGUG [Fam2.2 aminoacylation ribozyme variant]	43.8	31.1	337	17.4	58.8	20.6
AUUGACCUAGGUCAUUGGGUG [Fam2.2 aminoacylation ribozyme variant]	2.54	3.59	14.7	2.33	2.94	2.82
AUUGACCUAGGUCCUCGGGUG [Fam2.2 aminoacylation ribozyme variant]	4.64	5.43	29	3.24	5.76	4.32
AUUGACCUUGGUCAUCGGGUG [Fam2.2 aminoacylation ribozyme variant]	5.19	5.82	32.8	3.36	5.49	3.38
AUUGACGUAGGUCAUCGGGUG [Fam2.2 aminoacylation ribozyme variant]	4.18	4.06	30.5	3.22	3.27	2.26
AUUGACUUAGGUCAUCGGGUG [Fam2.2 aminoacylation ribozyme variant]	5.25	5.77	39.1	3.95	6.27	3.47
AUUGAGCUAGGUCAUCGGGUG [Fam2.2 aminoacylation ribozyme variant]	3.78	5.57	26.6	3.55	5.61	3.41
AUUGCCCAGGUCAUCGAGUGA [Fam2.1 aminoacylation ribozyme variant]	5.51	5.7	18.4	3.16	4.81	2.66
AUUGCCCUGAUCAUCGAGUGA [Fam2.1 aminoacylation ribozyme variant]	7.51	8.98	26.6	4.01	7.17	3.73
AUUGCCCUGCUCAUCGAGUGA [Fam2.1 aminoacylation ribozyme variant]	1.86	1.04	5.55	1.61	1.91	1.22
AUUGCCCUGGUCAUCAAGUGA [Fam2.1 aminoacylation ribozyme variant]	2.36	2.85	5.6	1.65	2.05	1.39
AUUGCCCUGGUCAUCGAAUGA [Fam2.1 aminoacylation ribozyme variant]	1.29	0.773	0.641	1.29	1.34	1.05
AUUGCCCUGGUCAUCGAGUCA [Fam2.1 aminoacylation ribozyme variant]	0.817	0.652	0.963	0.894	0.777	0.957
AUUGCCCUGGUCAUCGCGUGA [Fam2.1 aminoacylation ribozyme variant]	23.1	23.6	157	12	26.3	9.62
AUUGCCCUGGUCAUCGGGUGA [Fam2.1 aminoacylation ribozyme variant]	58.1	73.4	317	30	67.3	23.1
AUUGCCCUGGUCAUGGAGUGA [Fam2.1 aminoacylation ribozyme variant]	3.81	4.3	23.7	2.58	4.11	2.9
AUUGCCCUGGUCUUCGAGUGA [Fam2.1 aminoacylation ribozyme variant]	6.57	8.03	47.1	3.96	6.8	3.44
AUUGCCCUGGUGAUCGAGUGA [Fam2.1 aminoacylation ribozyme variant]	5.63	6	36.1	2.82	5.06	2.77
AUUGCGCUGGUCAUCGAGUGA [Fam2.1 aminoacylation ribozyme variant]	4.28	5.11	25.1	2.62	4.57	2.47
AUUGGCCUGGUCAUCGAGUGA [Fam2.1 aminoacylation ribozyme variant]	6.17	9.15	30.7	4.31	7.35	4.1
AUUUACAUAGGUCAUCGGGUG [Fam2.2 aminoacylation ribozyme variant]	5.69	5.5	39	3.38	6.44	3.38
AUUUACCUAGGUCAUCGGGCG [Fam2.2 aminoacylation ribozyme variant]	3.93	3.25	3.65	3	4.32	2.57
AUUUACCUAGGUCAUCGGGGG [Fam2.2 aminoacylation ribozyme variant]	3.84	2.43	3.14	2.46	4.77	2.81
